Data published in the supplement of paper PMC10724198.

Columns and labels:
Saccharomyces cerevisiae [1] = test: protein stability index of tFT-peptide fusion in wild type (PSI (0-1 scale)); higher = more stable (slower turnover); settings: genetic background: wild type
Method: (§1)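 MPS profiling in S. cerevisiae of two library types built from selected 12-aa C-degron peptides (IN1, IN2, LN1, LN3, VN2, R1-R5, W1-W3, Atg1 and Rpa12 C-termini): saturation mutagenesis libraries and C-terminal +1 capping libraries (13 aa). Each peptide is fused to the C-terminus of a sfGFP-mCherry timer, after a GGGS linker. Cells are FACS-sorted into 8 mCherry/sfGFP bins and sequenced. PSI runs from 0 (unstable) to 1 (stable), measured once in wild type and in the das1Δ or doa10Δ background.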

Saccharomyces cerevisiae [2] = test: protein stability index of tFT-peptide fusion in deletion strain of DAS1 (PSI (0-1 scale)); higher = more stable (slower turnover)
Method: as §1
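For protein stability index of tFT-peptide fusion in deletion strain of DAS1 in this document: PSI is a weighted mean of each variant's read distribution over the sorted stability bins, computed only for variants having over 10 reads in total.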
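For protein stability index of tFT-peptide fusion in wild type in this document: PSI derived as read-weighted mean over the 8 sorting bins, only variants exceeding 10 total reads kept, mCherry placed adjacent to the peptide and sfGFP distal.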

| Sequence | protein stability index (Saccharomyces cerevisiae [1]) | protein stability index (Saccharomyces cerevisiae [2]) |
| --- | --- | --- |
| RLIQPLPVQFSN | 0.591 | 0.601 |
| KKHKKGQKQKINV | 0.647 | 0.657 |
| PSLARSFWRVVG | 0.293 | 0.7 |
| RLIQPLPVQFLNN | 0.432 | 0.663 |
| FSMRWTFVYWVN | 0.0513 | 0.327 |
| KKHKKGQKQKINY | 0.643 | 0.663 |
| VRGAVDGWRLVG | 0.156 | 0.67 |
| VRGAVGAWRLVG | 0.144 | 0.704 |
| FSMRWTFQYWVN | 0.0522 | 0.502 |
| LTSCGYKFRTNN | 0.197 | 0.666 |
| LKILRQKMNFQN | 0.225 | 0.674 |
| CTSCGYTFRTNN | 0.245 | 0.708 |
| KGHKKGQKQKIN | 0.108 | 0.57 |
| FSMRMTFRYWVN | 0.0474 | 0.464 |
| PDKRNHLIKLHN | 0.359 | 0.593 |
| PSLAASFMRVVG | 0.531 | 0.681 |
| PDKRNHLIKQLN | 0.0992 | 0.575 |
| PDKNNHLIKLLN | 0.242 | 0.757 |
| LVVYLSCVAPIN | 0.457 | 0.449 |
| ARWRVGLWYGAS | 0.603 | 0.718 |
| TDKRNHLIKLLN | 0.12 | 0.577 |
| CTSCGYKFRTGN | 0.581 | 0.701 |
| CTSCGYKFRTNNQ | 0.681 | 0.673 |
| VRGAVGGWRLVGW | 0.666 | 0.668 |

| Sequence | protein stability index (Saccharomyces cerevisiae [1]) | protein stability index (Saccharomyces cerevisiae [2]) |
| --- | --- | --- |
| VRGAVGGWRLIG | 0.146 | 0.674 |
| LMILRQKMNHQN | 0.166 | 0.676 |
| PSLAASLWRVVG | 0.133 | 0.673 |
| KKHKKGQKQKINI | 0.649 | 0.661 |
| RLIDPLPVQFLN | 0.121 | 0.62 |
| LKILRQKMVHQN | 0.19 | 0.657 |
| LVVYLSCVGCIN | 0.244 | 0.293 |
| LKILRTKMNHQN | 0.178 | 0.678 |
| LVVYLSCGACIN | 0.283 | 0.3 |
| PSLAASFWRLVG | 0.135 | 0.688 |
| CTSCIYKFRTNN | 0.163 | 0.666 |
| ARWRVGLHRGAS | 0.63 | 0.685 |
| ARWRVGLWRGAH | 0.536 | 0.688 |
| PDKRNHLFKLLN | 0.112 | 0.609 |
| ARWRVGLWRIAS | 0.088 | 0.677 |
| ARWREGLWRGAS | 0.673 | 0.695 |
| VRGAVGGWRWVG | 0.144 | 0.682 |
| FSHRWTFRYWVN | 0.0512 | 0.568 |
| ARWRVGLWMGAS | 0.622 | 0.667 |
| KKHKKWQKQKIN | 0.0352 | 0.585 |
| VRGAVGGTRLVG | 0.63 | 0.673 |
| FSMRWVFRYWVN | 0.077 | 0.495 |
| LVCYLSCVACIN | 0.0123 | 0.0279 |
| FSMVWTFRYWVN | 0.0843 | 0.314 |

| Sequence | protein stability index (Saccharomyces cerevisiae [1]) | protein stability index (Saccharomyces cerevisiae [2]) |
| --- | --- | --- |
| RLIQPLPVQFLV | 0.0819 | 0.643 |
| PSLAASFWTVVG | 0.62 | 0.708 |
| CDSCGYKFRTNN | 0.251 | 0.691 |
| PSLAASKWRVVG | 0.138 | 0.666 |
| LAILRQKMNHQN | 0.137 | 0.67 |
| PSLAASVWRVVG | 0.162 | 0.661 |
| RLVQPLPVQFLN | 0.0538 | 0.628 |
| LVVTLSCVACIN | 0.0146 | 0.0408 |
| VRGAVGGWRLEG | 0.642 | 0.69 |
| KKHKKGQKQKIR | 0.676 | 0.595 |
| LKILRQKMNQQN | 0.218 | 0.676 |
| PDKDNHLIKLLN | 0.281 | 0.568 |
| FSMQWTFRYWVN | 0.0371 | 0.466 |
| FSMRWTFRLWVN | 0.028 | 0.291 |
| CKHKKGQKQKIN | 0.0815 | 0.568 |
| LVVYLSCVACINW | 0.0246 | 0.0403 |
| ARWRVGLCRGAS | 0.657 | 0.671 |
| CTSCGRKFRTNN | 0.456 | 0.717 |
| KKHKKGSKQKIN | 0.0787 | 0.673 |
| PSLAASFWHVVG | 0.46 | 0.691 |
| FPMRWTFRYWVN | 0.062 | 0.574 |
| VRGQVGGWRLVG | 0.147 | 0.677 |
| IRWRVGLWRGAS | 0.163 | 0.707 |
| PSLAPSFWRVVG | 0.136 | 0.682 |

| Sequence | protein stability index (Saccharomyces cerevisiae [1]) | protein stability index (Saccharomyces cerevisiae [2]) |
| --- | --- | --- |
| PDKRNHLIKLLNC | 0.124 | 0.663 |
| RLIQPLHVQFLN | 0.054 | 0.61 |
| FLMRWTFRYWVN | 0.0449 | 0.342 |
| RLIQPLPVQFLNP | 0.65 | 0.664 |
| LVVRLSCVACIN | 0.0177 | 0.0347 |
| PSNAASFWRVVG | 0.162 | 0.686 |
| FSLAASFWRVVG | 0.121 | 0.671 |
| LVVYLSCVYCIN | 0.0441 | 0.158 |
| KKHKGGQKQKIN | 0.0809 | 0.584 |
| RLIQILPVQFLN | 0.0377 | 0.546 |
| PDKHNHLIKLLN | 0.0998 | 0.622 |
| ARWRVGLWRGASL | 0.719 | 0.715 |
| KKHKKGQQQKIN | 0.162 | 0.571 |
| VRGAVGGWWLVG | 0.455 | 0.669 |
| FSMNWTFRYWVN | 0.0654 | 0.496 |
| PSLAASFYRVVG | 0.625 | 0.689 |
| KKHKKMQKQKIN | 0.027 | 0.571 |
| KKHKKHQKQKIN | 0.0431 | 0.521 |
| LKILRQKMNYQN | 0.219 | 0.657 |
| PDKRNHLIKLSN | 0.486 | 0.609 |
| ARWRVGLWRGASE | 0.663 | 0.666 |
| LVVYLSCVACWN | 0.0216 | 0.0568 |
| LKILRQKMNHQY | 0.274 | 0.684 |
| KKHKKGQKRKIN | 0.275 | 0.655 |

| Sequence | protein stability index (Saccharomyces cerevisiae [1]) | protein stability index (Saccharomyces cerevisiae [2]) |
| --- | --- | --- |
| LVVYLSCVACINC | 0.0649 | 0.0918 |
| LVVYLSCVACIA | 0.0168 | 0.0258 |
| RLIQPLPVFFLN | 0.0542 | 0.586 |
| ARWRVGKWRGAS | 0.327 | 0.687 |
| PDKRNHLIKALN | 0.252 | 0.589 |
| RLIHPLPVQFLN | 0.0474 | 0.616 |
| PDKRTHLIKLLN | 0.0881 | 0.655 |
| PSLAASFWRVVA | 0.131 | 0.68 |
| LVHYLSCVACIN | 0.0263 | 0.188 |
| VRGAVGGWDLVG | 0.664 | 0.656 |
| LVVYLSCVACINR | 0.0215 | 0.034 |
| PDKRNMLIKLLN | 0.0899 | 0.722 |
| KKHNKGQKQKIN | 0.0428 | 0.645 |
| ARWRVGLWRGMS | 0.202 | 0.663 |
| LHVYLSCVACIN | 0.0172 | 0.109 |
| ARWRVGIWRGAS | 0.344 | 0.691 |
| CTSAGYKFRTNN | 0.303 | 0.678 |
| FSMRWTFRNWVN | 0.0567 | 0.589 |
| RLIQPLAVQFLN | 0.0616 | 0.6 |
| PSLAASFWRVVN | 0.133 | 0.67 |
| CTSCGYKFQTNN | 0.175 | 0.723 |
